Assay results published in patent US20260265321A1, “PEPTIDE AND POLYPEPTIDE INHIBITING THE NF-KB SIGNALING PATHWAY” (Centre National de la Recherche Scientifique, priority 2023, published 2026).
Residues, ends and D or L forms follow the SMILES beside them.

T1: IKKα(10-667) EE homodimer (Homo sapiens, UniProt O15111, S176E/S180E)
T1 construct: an equivalent construct of the IKKα homodimer (i.e. IKKα(10-667) S176E/S180E, named IKKα(10-667) EE hereafter); 6×His (followed by TEV site) (N, cleaved yes); made in house; host or cells: Sf21 insect cells (baculovirus)
T1 sequence (O15111 10-667 S176E/S180E): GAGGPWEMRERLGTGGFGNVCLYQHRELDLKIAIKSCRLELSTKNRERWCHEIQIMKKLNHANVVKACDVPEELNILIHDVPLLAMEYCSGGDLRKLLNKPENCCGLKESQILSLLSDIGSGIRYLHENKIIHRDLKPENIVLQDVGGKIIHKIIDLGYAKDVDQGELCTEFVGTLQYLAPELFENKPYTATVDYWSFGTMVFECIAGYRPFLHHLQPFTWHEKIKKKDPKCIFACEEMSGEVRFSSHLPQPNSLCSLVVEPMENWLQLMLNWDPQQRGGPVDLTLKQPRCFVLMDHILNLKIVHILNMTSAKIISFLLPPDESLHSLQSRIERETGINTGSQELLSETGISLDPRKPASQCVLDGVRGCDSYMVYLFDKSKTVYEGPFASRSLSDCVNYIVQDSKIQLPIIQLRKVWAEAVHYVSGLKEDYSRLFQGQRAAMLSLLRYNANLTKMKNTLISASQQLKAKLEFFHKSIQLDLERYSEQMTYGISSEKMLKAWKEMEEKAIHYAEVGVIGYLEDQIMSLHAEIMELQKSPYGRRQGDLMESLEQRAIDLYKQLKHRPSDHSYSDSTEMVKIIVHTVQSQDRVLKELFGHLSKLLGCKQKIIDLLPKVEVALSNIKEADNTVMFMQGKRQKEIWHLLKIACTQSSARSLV

T2: IKKβ(1-669) S177E/S181E homodimer, 6×His tag removed (human, UniProt O14920 1-669)
T2 sequence (looked up): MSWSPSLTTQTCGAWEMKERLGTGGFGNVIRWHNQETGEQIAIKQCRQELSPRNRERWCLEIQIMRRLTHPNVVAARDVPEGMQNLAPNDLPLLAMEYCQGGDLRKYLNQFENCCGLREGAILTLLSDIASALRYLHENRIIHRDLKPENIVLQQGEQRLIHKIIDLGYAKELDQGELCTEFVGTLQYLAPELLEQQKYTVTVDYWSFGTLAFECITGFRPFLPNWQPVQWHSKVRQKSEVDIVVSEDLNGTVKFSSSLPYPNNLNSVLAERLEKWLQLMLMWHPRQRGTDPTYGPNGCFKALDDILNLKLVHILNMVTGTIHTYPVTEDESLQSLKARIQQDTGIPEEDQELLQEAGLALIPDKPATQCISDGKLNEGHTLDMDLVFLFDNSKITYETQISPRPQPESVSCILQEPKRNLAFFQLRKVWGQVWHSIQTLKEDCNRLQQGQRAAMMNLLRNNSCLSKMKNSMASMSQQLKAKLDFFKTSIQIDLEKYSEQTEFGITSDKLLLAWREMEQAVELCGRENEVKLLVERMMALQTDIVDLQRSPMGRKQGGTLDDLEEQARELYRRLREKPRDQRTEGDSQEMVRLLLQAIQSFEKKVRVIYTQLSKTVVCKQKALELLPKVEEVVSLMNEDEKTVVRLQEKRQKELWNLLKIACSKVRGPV

T3: IKKα(10-667) S176E/S180E homodimer, 6×His tag removed (human, UniProt O15111 10-667)
T3 construct: also called purified IKKα
T3 sequence (looked up): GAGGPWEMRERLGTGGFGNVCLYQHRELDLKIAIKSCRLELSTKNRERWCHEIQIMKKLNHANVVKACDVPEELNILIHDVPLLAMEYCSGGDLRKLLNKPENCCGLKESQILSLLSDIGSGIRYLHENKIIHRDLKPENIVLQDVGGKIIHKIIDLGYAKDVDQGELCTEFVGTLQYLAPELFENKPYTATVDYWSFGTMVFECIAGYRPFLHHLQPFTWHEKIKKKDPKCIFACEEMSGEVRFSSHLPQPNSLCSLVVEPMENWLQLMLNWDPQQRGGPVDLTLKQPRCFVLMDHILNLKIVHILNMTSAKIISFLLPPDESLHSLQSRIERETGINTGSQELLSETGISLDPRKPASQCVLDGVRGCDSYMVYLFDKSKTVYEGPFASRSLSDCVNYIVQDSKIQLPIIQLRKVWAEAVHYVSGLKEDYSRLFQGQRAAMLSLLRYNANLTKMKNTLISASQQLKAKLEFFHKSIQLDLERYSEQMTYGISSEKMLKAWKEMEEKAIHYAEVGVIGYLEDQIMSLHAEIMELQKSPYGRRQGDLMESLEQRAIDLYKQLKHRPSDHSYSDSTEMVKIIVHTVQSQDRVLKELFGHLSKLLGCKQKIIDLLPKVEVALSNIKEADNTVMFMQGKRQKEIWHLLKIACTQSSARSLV


Tests used:
[1] = biological target: T1, IKKα(10-667) EE homodimer; experiment: Isothermal titration calorimetry (ITC) of peptide binding to IKKα homodimer; conditions: 25° C.; for N (binding stoichiometry of IKKα: pep): 1:1 binding model; for TΔS / ΔG / ΔH: IKKα
Experimental: All experiments were performed in ITC buffer (20 mM HEPES pH 8.0, 150 mM NaCl, 1 mM TCEP) unless otherwise stated. Purified IKKα(10-667) EE and IKKβ(1-669) EE protein samples were dialyzed overnight against ITC buffer at 4° C. Just before the ITC experiments, IKKα or IKKβ samples were concentrated, incubated at room temperature for 30 minutes and centrifuged at 11000 g to remove eventual precipitate. The final concentrations of IKKα and IKKβ in the sample cell varied between 22 and 50 μM depending on the measurement. HPLC purified synthetic peptides (IκBα pep) comprising residues 297-317 of IκBα were further desalted using a Nap5 (GE Healthcare, #17-0853-01) column equilibrated in milliQ water, lyophilized and then resuspended in ITC buffer. The concentration of peptides in the syringe varied between 220 and 975 μM depending on the measurement.
All ITC measurements were performed using a PEAQ-ITC MALVERN instrument. The titration parameters were set as following: temperature 25° C., reference power 10 μcal/s, feedback=high, stirring speed 750 RPM, initial delay 60 s, first injection 0.4 μl in 0.8 s and the remaining 19 injections were 2 μL in 4 s with 120 s of spacing. The data were fitted to a 1:1 binding model. All data were processed using NITPIC software and global fitting of two datasets was carried out using SEDPHAD.
To evaluate binding affinities, isothermal titration calorimetry (ITC) experiments were performed using a synthetic peptide that comprises the YDDφXφ motif plus the N-terminal acidic patch (residues 297-317, named IκBα pep hereafter) and purified IKKβ(1-669) EE homodimer or an equivalent construct of the IKKα homodimer (i.e. IKKα(10-667) S176E/S180E, named IKKα(10-667) EE hereafter). […] ITC analyses on the IKKα/β heterodimer were prevented by strong aggregation propensity at the concentrations required for these experiments.
All ITC experiments were performed at 25° C. The data were fitted to a 1:1 binding model. N refers to the binding stoichiometry of IKKα/β: pep, meaning that approximately half of total IKKα/β concentration binds pep ligand in agreement with the dimer form of IKKα/β being binding competent. The values for the IKKα interaction with IRF7 pep should be regarded as estimates due to low affinity and weakly exothermic binding, and therefore high experimental error and fitting uncertainty. All data were processed using NITPIC software and global fitting of two datasets was carried out using SEDPHAD.

[2] = biological target: T2, IKKβ(1-669) S177E/S181E homodimer, …; experiment: ITC, 25 °C, synthetic peptide into IKK homodimer, 1:1 model
Experimental: (§1) All experiments were performed in ITC buffer (20 mM HEPES pH 8.0, 150 mM NaCl, 1 mM TCEP) unless otherwise stated. […] Just before the ITC experiments, IKKα or IKKβ samples were concentrated, incubated at room temperature for 30 minutes and centrifuged at 11000 g to remove eventual precipitate. The final concentrations of IKKα and IKKβ in the sample cell varied between 22 and 50 μM depending on the measurement. […] The concentration of peptides in the syringe varied between 220 and 975 μM depending on the measurement.
(§2) All ITC experiments were performed at 25° C. The data were fitted to a 1:1 binding model. […] All data were processed using NITPIC software and global fitting of two datasets was carried out using SEDPHAD.

[3] = biological target: T3, IKKα(10-667) S176E/S180E homodimer, …; experiment: as above
Experimental: as §1, §2

Molecule	N (binding stoichiometry of IKKα: pep) [1]	TΔS [1] [kcal/mol]	ΔG [1] [kcal/mol]	ΔH [1] [kcal/mol]	N (binding stoichiometry) [2]	TΔS [2] [kcal/mol]	ΔG [2] [kcal/mol]	ΔH [2] [kcal/mol]	N (binding stoichiometry) [3]	TΔS [3] [kcal/mol]	ΔG [3] [kcal/mol]	ΔH [3] [kcal/mol]	Kd [3] [µM]
CC[C@H](C)[C@H](NC(=O)CNC(=O)[C@H](CC(=O)O)NC(=O)[C@H](CC(C)C)NC(=O)CN)C(=O)N[C@H](C(=O)N[C@@H](CCC(=O)O)C(=O)N[C@@H](Cc1ccc(O)cc1)C(=O)N[C@@H](CC(=O)O)C(=O)N[C@@H](CC(=O)O)C(=O)N[C@@H](Cc1ccccc1)C(=O)N[C@@H](CCCCN)C(=O)N[C@@H](CC(C)C)C(=O)N[C@@H](CC(N)=O)C(=O)N[C@@H](CO)C(=O)N[C@@H](CO)C(=O)N[C@H](C(=O)N[C@H](C(=O)N[C@@H](CCC(=O)O)C(=O)N1CCC[C@H]1C(=O)N[C@@H](CCCCN)C(=O)N[C@@H](CCC(=O)O)C(=O)O)C(C)C)[C@@H](C)CC)[C@@H](C)CC [p100 pep] (H-GLDGIIEYDDFKLNSSIVEPKE-OH; N-terminus and C-terminus assumed)	0.60	-5.56	-6.77	-12.3	–	–	–	–	–	–	–	–	–
CC[C@H](C)[C@H](NC(=O)[C@H](CC(=O)O)NC(=O)[C@H](CC(=O)O)NC(=O)[C@H](Cc1ccc(O)cc1)NC(=O)[C@H](CC(C)C)NC(=O)[C@H](CO)NC(=O)[C@H](CC(N)=O)NC(=O)[C@H](C)NC(=O)[C@H](CO)NC(=O)[C@H](CO)NC(=O)[C@@H](N)CC(C)C)C(=O)N[C@@H](CCC(=O)O)C(=O)N[C@@H](CS)C(=O)N[C@@H](Cc1ccccc1)C(=O)N[C@@H](CC(C)C)C(=O)N[C@@H](CCSC)C(=O)N[C@@H](CCC(=O)O)C(=O)N[C@@H](CC(C)C)C(=O)N[C@@H](CCC(=O)O)C(=O)N[C@@H](CCC(N)=O)C(=O)N1CCC[C@H]1C(=O)N[C@@H](C)C(=O)O [IRF7 pep] (H-LSSANSLYDDIECFLMELEQPA-OH; N-terminus and C-terminus assumed)	0.6	-1.2	-5.5	-6.7	–	–	–	–	–	–	–	–	–
EFTEDELPYDDCVFGGQRLTL (HPLC purified synthetic peptide; also called IkBα pep wt; P1) [synthetic IκBα pep wt (residues 297-317 of IκBα)]	–	–	–	–	0.58	-9.78	-6	-15.8	0.62	-8.35	-6.88	-15.2	–
GLDGIIEYDDFKLNSSIVEPKE [synthetic p100 pep]	–	–	–	–	–	–	–	–	0.6	-5.56	-6.77	-12.3	11
